Results from article PMC8325345.

T1: ecHrpA1-783,E675A (Escherichia coli DH5-alpha, UniProt P43329 1-783, E675A)
T1 sequence: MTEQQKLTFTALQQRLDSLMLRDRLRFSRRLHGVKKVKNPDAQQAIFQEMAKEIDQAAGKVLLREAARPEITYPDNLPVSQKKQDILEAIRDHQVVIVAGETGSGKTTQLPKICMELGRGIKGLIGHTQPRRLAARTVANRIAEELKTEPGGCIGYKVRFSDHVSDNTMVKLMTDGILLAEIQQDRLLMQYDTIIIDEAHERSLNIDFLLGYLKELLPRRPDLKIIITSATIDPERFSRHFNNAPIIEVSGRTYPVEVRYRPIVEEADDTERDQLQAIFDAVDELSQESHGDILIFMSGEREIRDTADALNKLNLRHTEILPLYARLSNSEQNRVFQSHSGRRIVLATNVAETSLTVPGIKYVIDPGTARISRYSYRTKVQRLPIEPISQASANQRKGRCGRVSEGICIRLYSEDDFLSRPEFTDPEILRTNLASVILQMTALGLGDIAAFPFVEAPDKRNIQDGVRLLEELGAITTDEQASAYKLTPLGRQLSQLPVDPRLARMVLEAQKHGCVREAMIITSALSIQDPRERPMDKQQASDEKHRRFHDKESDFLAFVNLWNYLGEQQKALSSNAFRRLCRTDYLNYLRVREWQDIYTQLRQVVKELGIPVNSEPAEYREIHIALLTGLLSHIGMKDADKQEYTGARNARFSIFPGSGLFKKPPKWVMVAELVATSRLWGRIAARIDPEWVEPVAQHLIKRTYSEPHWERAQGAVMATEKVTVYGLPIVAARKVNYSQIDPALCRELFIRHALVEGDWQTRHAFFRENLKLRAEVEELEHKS

T2: ecHrpA FL (Escherichia coli DH5-alpha, UniProt P43329 1-1300)
T2 sequence: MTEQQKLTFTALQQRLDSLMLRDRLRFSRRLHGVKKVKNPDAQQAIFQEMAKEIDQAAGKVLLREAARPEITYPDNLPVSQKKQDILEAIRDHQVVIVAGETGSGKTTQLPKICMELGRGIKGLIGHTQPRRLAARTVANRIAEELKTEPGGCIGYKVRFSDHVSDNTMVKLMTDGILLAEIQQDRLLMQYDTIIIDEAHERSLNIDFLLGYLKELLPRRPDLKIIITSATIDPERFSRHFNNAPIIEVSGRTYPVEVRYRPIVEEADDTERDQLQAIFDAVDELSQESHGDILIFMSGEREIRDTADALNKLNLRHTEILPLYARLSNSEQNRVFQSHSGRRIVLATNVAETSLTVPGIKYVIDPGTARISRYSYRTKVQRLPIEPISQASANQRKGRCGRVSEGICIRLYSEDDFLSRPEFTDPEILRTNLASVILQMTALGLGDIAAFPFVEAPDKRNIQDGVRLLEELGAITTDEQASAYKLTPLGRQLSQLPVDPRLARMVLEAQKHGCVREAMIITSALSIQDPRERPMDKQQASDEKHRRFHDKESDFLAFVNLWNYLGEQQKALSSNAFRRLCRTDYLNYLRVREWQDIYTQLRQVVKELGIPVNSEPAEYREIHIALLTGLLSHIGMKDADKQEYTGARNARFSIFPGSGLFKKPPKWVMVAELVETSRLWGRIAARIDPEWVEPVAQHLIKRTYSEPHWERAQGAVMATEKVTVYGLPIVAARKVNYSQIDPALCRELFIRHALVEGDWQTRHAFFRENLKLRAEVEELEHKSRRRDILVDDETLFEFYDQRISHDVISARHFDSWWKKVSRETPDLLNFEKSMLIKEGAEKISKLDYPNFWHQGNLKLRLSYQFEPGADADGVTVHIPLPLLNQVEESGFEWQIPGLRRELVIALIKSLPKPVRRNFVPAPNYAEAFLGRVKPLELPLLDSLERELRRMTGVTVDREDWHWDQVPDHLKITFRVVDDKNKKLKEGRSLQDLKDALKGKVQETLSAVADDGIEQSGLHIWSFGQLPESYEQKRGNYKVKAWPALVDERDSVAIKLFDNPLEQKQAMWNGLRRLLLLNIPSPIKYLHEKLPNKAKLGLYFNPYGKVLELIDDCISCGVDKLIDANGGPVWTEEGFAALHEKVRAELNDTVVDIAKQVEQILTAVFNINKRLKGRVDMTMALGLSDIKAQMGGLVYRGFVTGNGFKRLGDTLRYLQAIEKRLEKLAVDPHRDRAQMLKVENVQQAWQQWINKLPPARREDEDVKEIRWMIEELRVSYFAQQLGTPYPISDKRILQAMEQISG


Columns and labels:
[1] = target: T1, ecHrpA1-783,E675A; test: fluorescence anisotropy
[2] = target: T2, ecHrpA FL; test: fluorescence anisotropy

Binder	binding signal [1]	binding result [2]
GCUGCCAGACCAAAU (ssRNA) [FAM-RNASS15]	~2.2 fold lower RNA binding than ecHrpA1-783	
FAM-RNABlunt (dsRNA) RNA 1: GCUGCCAGACCAAAU RNA 2: AUUUGGUCUGGCAGC		no binding
TATAAACCAGACCGTC (ssDNA) [FAM-DNASS16]		no binding
